Assay results reported in the supplement of paper PMC9112550, “Optimization of the antimicrobial peptide Bac7 by deep mutational scanning” (BMC Biology, 2022).

Tested on: Escherichia coli TOP10
Test: shrunken log2 fold change of peptide-encoding DNA abundance (4.5 h post-induction vs induction); higher = less antimicrobial activity (less host growth inhibition)
Conditions: time post-induction: 4.5 h; library: site-saturation at positions 5, 18, 19, 20
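Note: peptides expressed intracellularly from a pBAD plasmid library in pooled LB shake-flask culture, induced with 0.3% L-arabinose, DNA abundance read by NGS, three biological replicates, DESeq2 with apeglm shrinkage.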

Sequence | shrunken log2 fold change
RRIRERPPRLPRPRPRPYWYPRP | -1.83
RRIRRRPPRLPRPRPRPHGRPRP | 0.0549
RRIRNRPPRLPRPRPRPQVVPRP | 0.0145
RRIRRRPPRLPRPRPRPECGPRP | 0.938
RRIRPRPPRLPRPRPRPQHLPRP | -0.172
RRIRSRPPRLPRPRPRPLPRPRP | 0.741
RRIRGRPPRLPRPRPRPRWLPRP | 0.527
RRIRFRPPRLPRPRPRPHDIPRP | -0.0788
RRIRQRPPRLPRPRPRPLHKPRP | 0.0733
RRIRCRPPRLPRPRPRPLRMPRP | 0.461
RRIRQRPPRLPRPRPRPQCMPRP | -0.496
RRIRNRPPRLPRPRPRPCRKPRP | -0.0373
RRIRARPPRLPRPRPRPELCPRP | 0.92
RRIRRRPPRLPRPRPRPNMTPRP | -0.136
RRIRARPPRLPRPRPRPHNIPRP | -0.124
RRIRKRPPRLPRPRPRPELHPRP | 0.0814
RRIRGRPPRLPRPRPRPAGCPRP | 0.973
RRIRCRPPRLPRPRPRPLCDPRP | 0.54
RRIRERPPRLPRPRPRPFVAPRP | 0.0108
RRIRVRPPRLPRPRPRPWVMPRP | -0.212
RRIRFRPPRLPRPRPRPLNGPRP | 0.073
RRIRNRPPRLPRPRPRPQPIPRP | 0.14
RRIRTRPPRLPRPRPRPEEPPRP | 0.0165
RRIRKRPPRLPRPRPRPEYGPRP | 0.087
RRIRLRPPRLPRPRPRPYAKPRP | 0.0695

Sequence | shrunken log2 fold change
RRIRKRPPRLPRPRPRPHREPRP | -0.0175
RRIRCRPPRLPRPRPRPWNHPRP | -0.939
RRIRARPPRLPRPRPRPFTNPRP | -0.273
RRIRPRPPRLPRPRPRPCVAPRP | 0.51
RRIRIRPPRLPRPRPRPCMCPRP | -0.422
RRIRNRPPRLPRPRPRPKNQPRP | -0.54
RRIRVRPPRLPRPRPRPTGMPRP | 0.0943
RRIRSRPPRLPRPRPRPRAQPRP | 0.106
RRIRSRPPRLPRPRPRPYRFPRP | -0.134
RRIRKRPPRLPRPRPRPGKMPRP | -0.0991
RRIRRRPPRLPRPRPRPLQYPRP | 0.615
RRIRHRPPRLPRPRPRPLYSPRP | -0.792
RRIRYRPPRLPRPRPRPVHYPRP | -0.0657
RRIRARPPRLPRPRPRPWGIPRP | -0.0125
RRIRGRPPRLPRPRPRPGRSPRP | 0.85
RRIRARPPRLPRPRPRPITRPRP | 0.00663
RRIRNRPPRLPRPRPRPYHSPRP | -0.654
RRIRTRPPRLPRPRPRPYTAPRP | -0.389
RRIRGRPPRLPRPRPRPNKAPRP | 0.454
RRIRMRPPRLPRPRPRPRAPPRP | 1.18
RRIRMRPPRLPRPRPRPITWPRP | -0.327
RRIRARPPRLPRPRPRPWNIPRP | -0.675
RRIRCRPPRLPRPRPRPTEKPRP | -0.293
RRIRFRPPRLPRPRPRPCYMPRP | 1.54
RRIRYRPPRLPRPRPRPHLRPRP | -0.485

Sequence | shrunken log2 fold change
RRIRIRPPRLPRPRPRPLLWPRP | 0.0456
RRIRYRPPRLPRPRPRPLDGPRP | -0.467
RRIRRRPPRLPRPRPRPYIHPRP | -0.794
RRIRWRPPRLPRPRPRPFTIPRP | -0.212
RRIRKRPPRLPRPRPRPTSLPRP | -0.00423
RRIRTRPPRLPRPRPRPRKHPRP | -0.166
RRIRMRPPRLPRPRPRPEKRPRP | 0.0458
RRIRARPPRLPRPRPRPFIGPRP | -0.457
RRIRMRPPRLPRPRPRPLLGPRP | 0.495
RRIRGRPPRLPRPRPRPDNWPRP | 0.347
RRIRCRPPRLPRPRPRPTWTPRP | 0.362
RRIRGRPPRLPRPRPRPKPHPRP | 0.854
RRIRTRPPRLPRPRPRPTTLPRP | -0.316
RRIRIRPPRLPRPRPRPPQVPRP | 0.328
RRIRHRPPRLPRPRPRPERIPRP | -0.0507
RRIRRRPPRLPRPRPRPTKYPRP | -0.198
RRIRIRPPRLPRPRPRPEMLPRP | -0.119
RRIRQRPPRLPRPRPRPMKMPRP | 0.0133
RRIRNRPPRLPRPRPRPECMPRP | 0.406
RRIRKRPPRLPRPRPRPRTMPRP | 0.179
RRIRLRPPRLPRPRPRPDIMPRP | -0.0927
RRIRDRPPRLPRPRPRPTFEPRP | 0.527
RRIRGRPPRLPRPRPRPKTWPRP | 0.155
RRIRSRPPRLPRPRPRPEKLPRP | -0.264
RRIRNRPPRLPRPRPRPMKVPRP | 0.0279

Sequence | shrunken log2 fold change
RRIRLRPPRLPRPRPRPEWKPRP | -0.16
RRIRSRPPRLPRPRPRPIEWPRP | 0.0274
RRIRNRPPRLPRPRPRPETTPRP | 0.0795
RRIRLRPPRLPRPRPRPCTAPRP | -0.139
RRIRARPPRLPRPRPRPQDEPRP | 0.195
RRIRNRPPRLPRPRPRPIDNPRP | -0.0163
RRIRARPPRLPRPRPRPSSAPRP | 1.29
RRIRWRPPRLPRPRPRPSTDPRP | 0.0398
RRIRSRPPRLPRPRPRPCKNPRP | -0.283
RRIRRRPPRLPRPRPRPETSPRP | 0.4
RRIRFRPPRLPRPRPRPDTAPRP | -0.22
RRIRYRPPRLPRPRPRPMINPRP | -1.18
RRIRHRPPRLPRPRPRPSLIPRP | 0.954
RRIRCRPPRLPRPRPRPPHKPRP | 0.68
RRIRDRPPRLPRPRPRPLRYPRP | 0.00765
RRIRGRPPRLPRPRPRPTYEPRP | 0.318
RRIRDRPPRLPRPRPRPCCQPRP | -0.0183
RRIRNRPPRLPRPRPRPLTVPRP | 0.0619
RRIRDRPPRLPRPRPRPASDPRP | 0.0114
RRIRQRPPRLPRPRPRPRYKPRP | -0.278
RRIRLRPPRLPRPRPRPMNTPRP | -0.524
RRIRQRPPRLPRPRPRPHKHPRP | -0.502
RRIRLRPPRLPRPRPRPARTPRP | 0.468
RRIRIRPPRLPRPRPRPAEFPRP | -0.0793
RRIRNRPPRLPRPRPRPGPDPRP | 0.295

Sequence | shrunken log2 fold change
RRIRMRPPRLPRPRPRPYFDPRP | -1.09
RRIRHRPPRLPRPRPRPSVIPRP | -0.369
RRIRVRPPRLPRPRPRPKMSPRP | -0.122
RRIRTRPPRLPRPRPRPRNSPRP | -0.193
RRIRTRPPRLPRPRPRPPYAPRP | -0.17
RRIRFRPPRLPRPRPRPNHHPRP | -1.02
RRIRERPPRLPRPRPRPCGKPRP | -0.00192
RRIRLRPPRLPRPRPRPWPPPRP | 0.668
RRIRCRPPRLPRPRPRPCCQPRP | -0.342
RRIRDRPPRLPRPRPRPDWRPRP | 0.183
RRIRCRPPRLPRPRPRPFPPPRP | 0.0149
RRIRFRPPRLPRPRPRPNQVPRP | -1.05
RRIRHRPPRLPRPRPRPEMFPRP | 0.223
RRIRPRPPRLPRPRPRPGEEPRP | 0.359
RRIRGRPPRLPRPRPRPATQPRP | 0.631
RRIRLRPPRLPRPRPRPNSRPRP | -0.0164
RRIRFRPPRLPRPRPRPNHDPRP | -0.332
RRIRRRPPRLPRPRPRPVFDPRP | 0.348
RRIRIRPPRLPRPRPRPREYPRP | -0.565
RRIRFRPPRLPRPRPRPIYYPRP | -1.24
RRIRIRPPRLPRPRPRPQFIPRP | -0.782
RRIRGRPPRLPRPRPRPLGIPRP | 0.178
RRIRKRPPRLPRPRPRPSVHPRP | -0.118
RRIRFRPPRLPRPRPRPGWTPRP | -0.115
RRIRPRPPRLPRPRPRPQIDPRP | -0.0108
